B1: sp¦Q86W42¦THOC6_HUMAN (protein, UniProt Q86W42 1-341, looked up)
THO complex subunit 6: MERAVPLAVPLGQTEVFQALQRLHMTIFSQSVSPCGKFLAAGNNYGQIAIFSLSSALSSEAKEESKKPVVTFQAHDGPVYSMVSTDRHLLSAGDGEVKAWLWAEMLKKGCKELWRRQPPYRTSLEVPEINALLLVPKENSLILAGGDCQLHTMDLETGTFTRVLRGHTDYIHCLALRERSPEVLSGGEDGAVRLWDLRTAKEVQTIEVYKHEECSRPHNGRWIGCLATDSDWMVCGGGPALTLWHLRSSTPTTIFPIRAPQKHVTFYQDLILSAGQGRCVNQWQLSGELKAQVPGSSPGLLSLSLNQQPAAPECKVLTAAGNSCRVDVFTNLGYRAFSLSF
B2: sp¦P50213¦IDH3A_HUMAN (protein, UniProt P50213 28-366, looked up)
Isocitrate dehydrogenase …: TGGVQTVTLIPGDGIGPEISAAVMKIFDAAKAPIQWEERNVTAIQGPGGKWMIPSEAKESMDKNKMGLKGPLKTPIAAGHPSMNLLLRKTFDLYANVRPCVSIEGYKTPYTDVNIVTIRENTEGEYSGIEHVIVDGVVQSIKLITEGASKRIAEFAFEYARNNHRSNVTAVHKANIMRMSDGLFLQKCREVAESCKDIKFNEMYLDTVCLNMVQDPSQFDVLVMPNLYGDILSDLCAGLIGGLGVTPSGNIGANGVAIFESVHGTAPDIAGKDMANPTALLLSAVMMLRHMGLFDHAARIEAACFATIKDGKSLTKDLGGNAKCSDFTEEICRRVKDLD
B3: sp¦Q70J99¦UN13D_HUMAN (protein, UniProt Q70J99 1-1090, looked up)
Protein unc-13 homolog D: MATLLSHPQQRPPFLRQAIKIRRRRVRDLQDPPPQMAPEIQPPSHHFSPEQRALLYEDALYTVLHRLGHPEPNHVTEASELLRYLQEAFHVEPEEHQQTLQRVRELEKPIFCLKATVKQAKGILGKDVSGFSDPYCLLGIEQGVGVPGGSPGSRHRQKAVVRHTIPEEETHRTQVITQTLNPVWDETFILEFEDITNASFHLDMWDLDTVESVRQKLGELTDLHGLRRIFKEARKDKGQDDFLGNVVLRLQDLRCREDQWYPLEPRTETYPDRGQCHLQFQLIHKRRATSASRSQPSYTVHLHLLQQLVSHEVTQHEAGSTSWDGSLSPQAATVLFLHATQKDLSDFHQSMAQWLAYSRLYQSLEFPSSCLLHPITSIEYQWIQGRLKAEQQEELAASFSSLLTYGLSLIRRFRSVFPLSVSDSPARLQSLLRVLVQMCKMKAFGELCPNTAPLPQLVTEALQTGTTEWFHLKQQHHQPMVQGIPEAGKALLGLVQDVIGDLHQCQRTWDKIFHNTLKIHLFSMAFRELQWLVAKRVQDHTTVVGDVVSPEMGESLFQLYISLKELCQLRMSSSERDGVLALDNFHRWFQPAIPSWLQKTYNEALARVQRAVQMDELVPLGELTKHSTSAVDLSTCFAQISHTARQLDWPDPEEAFMITVKFVEDTCRLALVYCSLIKARARELSSGQKDQGQAANMLCVVVNDMEQLRLVIGKLPAQLAWEALEQRVGAVLEQGQLQNTLHAQLQSALAGLGHEIRTGVRTLAEQLEVGIAKHIQKLVGVRESVLPEDAILPLMKFLEVELCYMNTNLVQENFSSLLTLLWTHTLTVLVEAAASQRSSSLASNRLKIALQNLEICFHAEGCGLPPKALHTATFQALQRDLELQAASSRELIRKYFCSRIQQQAETTSEELGAVTVKASYRASEQKLRVELLSASSLLPLDSNGSSDPFVQLTLEPRHEFPELAARETQKHKKDLHPLFDETFEFLVPAEPCRKAGACLLLTVLDYDTLGADDLEGEAFLPLREVPGLSGSEEPGEVPQTRLPLTYPAPNGDPILQLLEGRKGDREAQVFVRLRRHRAKQASQHALRPAP
B4: sp¦O60832¦DKC1_HUMAN (protein, UniProt O60832 2-514, looked up)
H/ACA ribonucleoprotein …: ADAEVIILPKKHKKKKERKSLPEEDVAEIQHAEEFLIKPESKVAKLDTSQWPLLLKNFDKLNVRTTHYTPLACGSNPLKREIGDYIRTGFINLDKPSNPSSHEVVAWIRRILRVEKTGHSGTLDPKVTGCLIVCIERATRLVKSQQSAGKEYVGIVRLHNAIEGGTQLSRALETLTGALFQRPPLIAAVKRQLRVRTIYESKMIEYDPERRLGIFWVSCEAGTYIRTLCVHLGLLLGVGGQMQELRRVRSGVMSEKDHMVTMHDVLDAQWLYDNHKDESYLRRVVYPLEKLLTSHKRLVMKDSAVNAICYGAKIMLPGVLRYEDGIEVNQEIVVITTKGEAICMAIALMTTAVISTCDHGIVAKIKRVIMERDTYPRKWGLGPKASQKKLMIKQGLLDKHGKPTDSTPATWKQEYVDYSESAKKEVVAEVVKAPQVVAEAAKTAKRKRESESESDETPPAAPQLIKKEKKKSKKDKKAKAGLESGAEPGDGDSDTTKKKKKKKKAKEVELVSE
B5: sp¦Q9BVP2¦GNL3_HUMAN (protein, UniProt Q9BVP2 1-549, looked up)
Guanine nucleotide-binding …: MKRPKLKKASKRMTCHKRYKIQKKVREHHRKLRKEAKKRGHKKPRKDPGVPNSAPFKEALLREAELRKQRLEELKQQQKLDRQKELEKKRKLETNPDIKPSNVEPMEKEFGLCKTENKAKSGKQNSKKLYCQELKKVIEASDVVLEVLDARDPLGCRCPQVEEAIVQSGQKKLVLILNKSDLVPKENLESWLNYLKKELPTVVFRASTKPKDKGKITKRVKAKKNAAPFRSEVCFGKEGLWKLLGGFQETCSKAIRVGVIGFPNVGKSSIINSLKQEQMCNVGVSMGLTRSMQVVPLDKQITIIDSPSFIVSPLNSSSALALRSPASIEVVKPMEAASAILSQADARQVVLKYTVPGYRNSLEFFTVLAQRRGMHQKGGIPNVEGAAKLLWSEWTGASLAYYCHPPTSWTPPPYFNESIVVDMKSGFNLEELEKNNAQSIRAIKGPHLANSILFQSSGLTNGIIEEKDIHEELPKRKERKQEEREDDKDSDQETVDEEVDENSSGMFAAEETGEALSEETTAGEQSTRSFILDKIIEEDDAYDFSTDYV
B6: sp¦Q52LJ0¦FA98B_HUMAN (protein, UniProt Q52LJ0 1-433, looked up)
Protein FAM98B: MRGPEPGPQPTMEGDVLDTLEALGYKGPLLEEQALTKAAEGGLSSPEFSELCIWLGSQIKSLCNLEESITSAGRDDLESFQLEISGFLKEMACPYSVLISGDIKDRLKKKEDCLKLLLFLSTELQASQILQNKKHKNSQLDKNSEVYQEVQAMFDTLGIPKSTTSDIPHMLNQVESKVKDILSKVQKNHVGKPLLKMDLNSEQAEQLERINDALSCEYECRRRMLMKRLDVTVQSFGWSDRAKVKTDDIARIYQPKRYALSPKTTITMAHLLAAREDLSKIIRTSSGTSREKTACAINKVLMGRVPDRGGRPNEIEPPPPEMPPWQKRQEGGGGRGGWGGGGGGGGRGGGGGGGGRGGWGGGGGGWGGGGGGGGGWGGGGGGGRGGFQGRGDYGGRGGYGGRGGYGGRGYGDPYGGGGGGGGGGGGGGGYRRY
B7: sp¦P43490¦NAMPT_HUMAN (protein, UniProt P43490 1-491, looked up)
Nicotinamide …: MNPAAEAEFNILLATDSYKVTHYKQYPPNTSKVYSYFECREKKTENSKLRKVKYEETVFYGLQYILNKYLKGKVVTKEKIQEAKDVYKEHFQDDVFNEKGWNYILEKYDGHLPIEIKAVPEGFVIPRGNVLFTVENTDPECYWLTNWIETILVQSWYPITVATNSREQKKILAKYLLETSGNLDGLEYKLHDFGYRGVSSQETAGIGASAHLVNFKGTDTVAGLALIKKYYGTKDPVPGYSVPAAEHSTITAWGKDHEKDAFEHIVTQFSSVPVSVVSDSYDIYNACEKIWGEDLRHLIVSRSTQAPLIIRPDSGNPLDTVLKVLEILGKKFPVTENSKGYKLLPPYLRVIQGDGVDINTLQEIVEGMKQKMWSIENIAFGSGGGLLQKLTRDLLNCSFKCSYVVTNGLGINVFKDPVADPNKRSKKGRLSLHRTPAGNFVTLEEGKGDLEEYGQDLLHTVFKNGKVTKSYSFDEIRKNAQLNIELEAAHH
B8: sp¦P26639¦SYTC_HUMAN (protein, UniProt P26639 1-723, looked up)
Threonine--tRNA ligase 1, …: MFEEKASSPSGKMGGEEKPIGAGEEKQKEGGKKKNKEGSGDGGRAELNPWPEYIYTRLEMYNILKAEHDSILAEKAEKDSKPIKVTLPDGKQVDAESWKTTPYQIACGISQGLADNTVIAKVNNVVWDLDRPLEEDCTLELLKFEDEEAQAVYWHSSAHIMGEAMERVYGGCLCYGPPIENGFYYDMYLEEGGVSSNDFSSLEALCKKIIKEKQAFERLEVKKETLLAMFKYNKFKCRILNEKVNTPTTTVYRCGPLIDLCRGPHVRHTGKIKALKIHKNSSTYWEGKADMETLQRIYGISFPDPKMLKEWEKFQEEAKNRDHRKIGRDQELYFFHELSPGSCFFLPKGAYIYNALIEFIRSEYRKRGFQEVVTPNIFNSRLWMTSGHWQHYSENMFSFEVEKELFALKPMNCPGHCLMFDHRPRSWRELPLRLADFGVLHRNELSGALTGLTRVRRFQQDDAHIFCAMEQIEDEIKGCLDFLRTVYSVFGFSFKLNLSTRPEKFLGDIEVWDQAEKQLENSLNEFGEKWELNSGDGAFYGPKIDIQIKDAIGRYHQCATIQLDFQLPIRFNLTYVSHDGDDKKRPVIVHRAILGSVERMIAILTENYGGKWPFWLSPRQVMVVPVGPTCDEYAQKVRQQFHDAKFMADIDLDPGCTLNKKIRNAQLAQYNFILVVGEKEKISGTVNIRTRDNKVHGERTISETIERLQQLKEFRSKQAEEEF
B9: sp¦O95573¦ACSL3_HUMAN (protein, UniProt O95573 1-720, looked up)
Fatty acid CoA ligase Acsl3: MNNHVSSKPSTMKLKHTINPILLYFIHFLISLYTILTYIPFYFFSESRQEKSNRIKAKPVNSKPDSAYRSVNSLDGLASVLYPGCDTLDKVFTYAKNKFKNKRLLGTREVLNEEDEVQPNGKIFKKVILGQYNWLSYEDVFVRAFNFGNGLQMLGQKPKTNIAIFCETRAEWMIAAQACFMYNFQLVTLYATLGGPAIVHALNETEVTNIITSKELLQTKLKDIVSLVPRLRHIITVDGKPPTWSEFPKGIIVHTMAAVEALGAKASMENQPHSKPLPSDIAVIMYTSGSTGLPKGVMISHSNIIAGITGMAERIPELGEEDVYIGYLPLAHVLELSAELVCLSHGCRIGYSSPQTLADQSSKIKKGSKGDTSMLKPTLMAAVPEIMDRIYKNVMNKVSEMSSFQRNLFILAYNYKMEQISKGRNTPLCDSFVFRKVRSLLGGNIRLLLCGGAPLSATTQRFMNICFCCPVGQGYGLTESAGAGTISEVWDYNTGRVGAPLVCCEIKLKNWEEGGYFNTDKPHPRGEILIGGQSVTMGYYKNEAKTKADFFEDENGQRWLCTGDIGEFEPDGCLKIIDRKKDLVKLQAGEYVSLGKVEAALKNLPLVDNICAYANSYHSYVIGFVVPNQKELTELARKKGLKGTWEELCNSCEMENEVLKVLSEAAISASLEKFEIPVKIRLSPEPWTPETGLVTDAFKLKRKELKTHYQADIERMYGRK

What follows are molecules tested on human HL60 cells (assay: SWATH-MS proteomics, differential protein representation, akirin2 KO vs WT HL60 cells). Details: SWATH-MS, akirin2 KO vs WT HL60 cells; sheet "Under-represented in KO".
Assay type: cell-based
Procedure, shortened: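 WT and akirin2 KO HL60 lysates (150 µg, n=3 biological replicates) were FASP trypsin-digested and desalted. A spectral library was built by IDA from 3 µg digests, then 5 µg per sample went to variable-window SWATH DIA over a 120-min 5–30% acetonitrile gradient. Identifications were accepted at 1% global FDR, with total-area-sum normalization.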

Point of comparison: B5, “Fold Change” value 0.7833. Against it:
- B1 — higher, 0.7851
- B2 — lower, 0.7755
- B3 — higher, 0.785
- B4 — lower, 0.774
- B6 — higher, 0.7848
- B7 — higher, 0.7897
- B8 — lower, 0.7727

Point of comparison: B8, “Log (Fold Change)” value -0.112. Against it:
- B1 — within 0.2 log units, -0.1051
- B2 — within 0.2 log units, -0.1104
- B3 — within 0.2 log units, -0.1051
- B4 — within 0.2 log units, -0.1113
- B5 — within 0.2 log units, -0.1061
- B6 — within 0.2 log units, -0.1053
- B7 — within 0.2 log units, -0.1025

Same assay, conditions: akirin2 KO vs WT HL60 cells; sheet "Under-represented in KO"

B9 was tested, and the “Fold Change” value was 0.3507.

For B9, the “Log (Fold Change)” value was -0.4551.

Reference: article PMC8298264, “Function of cofactor Akirin2 in the regulation of gene expression in model human neutrophil-like HL60 cells” (Bioscience Reports, 2021)
